Source: publication PMC11851098 (Nucleic Acids Research, 2025)

T1: Suv3 helicase (UniProt Q8IYB8 23-786, Alexa 647 label (site not stated) in the MST assay)
T1 sequence (looked up): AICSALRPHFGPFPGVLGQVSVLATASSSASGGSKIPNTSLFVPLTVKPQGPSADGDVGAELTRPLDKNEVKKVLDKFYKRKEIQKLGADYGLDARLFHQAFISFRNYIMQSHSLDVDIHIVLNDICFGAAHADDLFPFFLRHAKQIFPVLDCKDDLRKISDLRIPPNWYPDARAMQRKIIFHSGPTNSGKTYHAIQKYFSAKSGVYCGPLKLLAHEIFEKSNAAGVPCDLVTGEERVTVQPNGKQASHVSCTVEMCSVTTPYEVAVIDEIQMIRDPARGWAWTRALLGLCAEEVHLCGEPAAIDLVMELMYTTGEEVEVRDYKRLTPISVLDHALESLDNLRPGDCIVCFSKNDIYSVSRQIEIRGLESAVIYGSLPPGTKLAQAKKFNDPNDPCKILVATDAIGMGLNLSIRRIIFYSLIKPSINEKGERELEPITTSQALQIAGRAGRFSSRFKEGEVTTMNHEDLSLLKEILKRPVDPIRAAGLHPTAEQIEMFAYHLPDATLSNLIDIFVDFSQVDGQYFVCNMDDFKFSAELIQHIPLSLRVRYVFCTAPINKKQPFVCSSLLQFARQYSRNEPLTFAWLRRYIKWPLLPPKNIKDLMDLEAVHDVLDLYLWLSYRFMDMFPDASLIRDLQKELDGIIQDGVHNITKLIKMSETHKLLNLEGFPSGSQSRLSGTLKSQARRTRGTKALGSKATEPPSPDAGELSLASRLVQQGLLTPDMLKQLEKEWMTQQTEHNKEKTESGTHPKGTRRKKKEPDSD


Experiments:
[1] = target: the molecule itself; assay: SEC
[2] = target: T1, Suv3 helicase; assay: MST
[3] = target: the molecule itself; assay: SAXS

Kd [2] | Binder | stoichiometry N [1] | stoichiometry N [3]
297 ± 80 nM | human polynucleotide phosphorylase (hPNPase), wild type, residues 46-783 (enzyme, UniProt Q8TCS8 46-783, looked up) AVAVDLGNRKLEISSGKLARFADGSAVVQSGDTAVMVTAVSKTKPSPSQFMPLVVDYRQKAAAAGRIPTNYLRREIGTSDKEILTSRIIDRSIRPLFPAGYFYDTQVLCNLLAVDGVNEPDVLAINGASVALSLSDIPWNGPVGAVRIGIIDGEYVVNPTRKEMSSSTLNLVVAGAPKSQIVMLEASAENILQQDFCHAIKVGVKYTQQIIQGIQQLVKETGVTKRTPQKLFTPSPEIVKYTHKLAMERLYAVFTDYEHDKVSRDEAVNKIRLDTEEQLKEKFPEADPYEIIESFNVVAKEVFRSIVLNEYKRCDGRDLTSLRNVSCEVDMFKTLHGSALFQRGQTQVLCTVTFDSLESGIKSDQVITAINGIKDKNFMLHYEFPPYATNEIGKVTGLNRRELGHGALAEKALYPVIPRDFPFTIRVTSEVLESNGSSSMASACGGSLALMDSGVPISSAVAGVAIGLVTKTDPEKGEIEDYRLLTDILGIEDYNGDMDFKIAGTNKGITALQADIKLPGIPIKIVMEAIQQASVAKKEILQIMNKTISKPRASRKENGPVVETVQVPLSKRAKFVGPGGYNLKKLQAETGVTISQVDEETFSVFAPTPSAMHEARDFITEICKDDQEQQLEFGAVYTATITEIRDTGVMVKLYPNMTAVLLHNTQLDQRKIKHPTALGLEVGQEIQVKYFGRDPADGRMRLSRKVLQSPATTVVRTLNDRSSIVMGEPISQSSSNSQ | 3 | 
 | hPNPase S484A mutant (inactive) (enzyme, human, UniProt Q8TCS8 46-783, looked up) AVAVDLGNRKLEISSGKLARFADGSAVVQSGDTAVMVTAVSKTKPSPSQFMPLVVDYRQKAAAAGRIPTNYLRREIGTSDKEILTSRIIDRSIRPLFPAGYFYDTQVLCNLLAVDGVNEPDVLAINGASVALSLSDIPWNGPVGAVRIGIIDGEYVVNPTRKEMSSSTLNLVVAGAPKSQIVMLEASAENILQQDFCHAIKVGVKYTQQIIQGIQQLVKETGVTKRTPQKLFTPSPEIVKYTHKLAMERLYAVFTDYEHDKVSRDEAVNKIRLDTEEQLKEKFPEADPYEIIESFNVVAKEVFRSIVLNEYKRCDGRDLTSLRNVSCEVDMFKTLHGSALFQRGQTQVLCTVTFDSLESGIKSDQVITAINGIKDKNFMLHYEFPPYATNEIGKVTGLNRRELGHGALAEKALYPVIPRDFPFTIRVTSEVLESNGSSAMASACGGSLALMDSGVPISSAVAGVAIGLVTKTDPEKGEIEDYRLLTDILGIEDYNGDMDFKIAGTNKGITALQADIKLPGIPIKIVMEAIQQASVAKKEILQIMNKTISKPRASRKENGPVVETVQVPLSKRAKFVGPGGYNLKKLQAETGVTISQVDEETFSVFAPTPSAMHEARDFITEICKDDQEQQLEFGAVYTATITEIRDTGVMVKLYPNMTAVLLHNTQLDQRKIKHPTALGLEVGQEIQVKYFGRDPADGRMRLSRKVLQSPATTVVRTLNDRSSIVMGEPISQSSSNSQ |  | 3
 | hPNPase D713Y-S484A double mutant, residues 46-783 (enzyme, human, UniProt Q8TCS8 46-783, looked up) AVAVDLGNRKLEISSGKLARFADGSAVVQSGDTAVMVTAVSKTKPSPSQFMPLVVDYRQKAAAAGRIPTNYLRREIGTSDKEILTSRIIDRSIRPLFPAGYFYDTQVLCNLLAVDGVNEPDVLAINGASVALSLSDIPWNGPVGAVRIGIIDGEYVVNPTRKEMSSSTLNLVVAGAPKSQIVMLEASAENILQQDFCHAIKVGVKYTQQIIQGIQQLVKETGVTKRTPQKLFTPSPEIVKYTHKLAMERLYAVFTDYEHDKVSRDEAVNKIRLDTEEQLKEKFPEADPYEIIESFNVVAKEVFRSIVLNEYKRCDGRDLTSLRNVSCEVDMFKTLHGSALFQRGQTQVLCTVTFDSLESGIKSDQVITAINGIKDKNFMLHYEFPPYATNEIGKVTGLNRRELGHGALAEKALYPVIPRDFPFTIRVTSEVLESNGSSAMASACGGSLALMDSGVPISSAVAGVAIGLVTKTDPEKGEIEDYRLLTDILGIEDYNGDMDFKIAGTNKGITALQADIKLPGIPIKIVMEAIQQASVAKKEILQIMNKTISKPRASRKENGPVVETVQVPLSKRAKFVGPGGYNLKKLQAETGVTISQVDEETFSVFAPTPSAMHEARDFITEICKDDQEQQLEFGAVYTATITEIRDTGVMVKLYPNMTAVLLHNTQLYQRKIKHPTALGLEVGQEIQVKYFGRDPADGRMRLSRKVLQSPATTVVRTLNDRSSIVMGEPISQSSSNSQ | 3 | 
 | hPNPase G499R-S484A double mutant, residues 46-783 (enzyme, human, UniProt Q8TCS8 46-783, looked up) AVAVDLGNRKLEISSGKLARFADGSAVVQSGDTAVMVTAVSKTKPSPSQFMPLVVDYRQKAAAAGRIPTNYLRREIGTSDKEILTSRIIDRSIRPLFPAGYFYDTQVLCNLLAVDGVNEPDVLAINGASVALSLSDIPWNGPVGAVRIGIIDGEYVVNPTRKEMSSSTLNLVVAGAPKSQIVMLEASAENILQQDFCHAIKVGVKYTQQIIQGIQQLVKETGVTKRTPQKLFTPSPEIVKYTHKLAMERLYAVFTDYEHDKVSRDEAVNKIRLDTEEQLKEKFPEADPYEIIESFNVVAKEVFRSIVLNEYKRCDGRDLTSLRNVSCEVDMFKTLHGSALFQRGQTQVLCTVTFDSLESGIKSDQVITAINGIKDKNFMLHYEFPPYATNEIGKVTGLNRRELGHGALAEKALYPVIPRDFPFTIRVTSEVLESNGSSAMASACGGSLALMDSRVPISSAVAGVAIGLVTKTDPEKGEIEDYRLLTDILGIEDYNGDMDFKIAGTNKGITALQADIKLPGIPIKIVMEAIQQASVAKKEILQIMNKTISKPRASRKENGPVVETVQVPLSKRAKFVGPGGYNLKKLQAETGVTISQVDEETFSVFAPTPSAMHEARDFITEICKDDQEQQLEFGAVYTATITEIRDTGVMVKLYPNMTAVLLHNTQLDQRKIKHPTALGLEVGQEIQVKYFGRDPADGRMRLSRKVLQSPATTVVRTLNDRSSIVMGEPISQSSSNSQ | 3 | 
 | hPNPase P467S-S484A double mutant, residues 46-783 (enzyme, human, UniProt Q8TCS8 46-783, looked up) AVAVDLGNRKLEISSGKLARFADGSAVVQSGDTAVMVTAVSKTKPSPSQFMPLVVDYRQKAAAAGRIPTNYLRREIGTSDKEILTSRIIDRSIRPLFPAGYFYDTQVLCNLLAVDGVNEPDVLAINGASVALSLSDIPWNGPVGAVRIGIIDGEYVVNPTRKEMSSSTLNLVVAGAPKSQIVMLEASAENILQQDFCHAIKVGVKYTQQIIQGIQQLVKETGVTKRTPQKLFTPSPEIVKYTHKLAMERLYAVFTDYEHDKVSRDEAVNKIRLDTEEQLKEKFPEADPYEIIESFNVVAKEVFRSIVLNEYKRCDGRDLTSLRNVSCEVDMFKTLHGSALFQRGQTQVLCTVTFDSLESGIKSDQVITAINGIKDKNFMLHYEFPPYATNEIGKVTGLNRRELGHGALAEKALYPVIPRDFSFTIRVTSEVLESNGSSAMASACGGSLALMDSGVPISSAVAGVAIGLVTKTDPEKGEIEDYRLLTDILGIEDYNGDMDFKIAGTNKGITALQADIKLPGIPIKIVMEAIQQASVAKKEILQIMNKTISKPRASRKENGPVVETVQVPLSKRAKFVGPGGYNLKKLQAETGVTISQVDEETFSVFAPTPSAMHEARDFITEICKDDQEQQLEFGAVYTATITEIRDTGVMVKLYPNMTAVLLHNTQLDQRKIKHPTALGLEVGQEIQVKYFGRDPADGRMRLSRKVLQSPATTVVRTLNDRSSIVMGEPISQSSSNSQ | 3 | 
474 ± 70 nM | hPNPase G499R mutant, residues 46-783 (enzyme, human, UniProt Q8TCS8 46-783, looked up) AVAVDLGNRKLEISSGKLARFADGSAVVQSGDTAVMVTAVSKTKPSPSQFMPLVVDYRQKAAAAGRIPTNYLRREIGTSDKEILTSRIIDRSIRPLFPAGYFYDTQVLCNLLAVDGVNEPDVLAINGASVALSLSDIPWNGPVGAVRIGIIDGEYVVNPTRKEMSSSTLNLVVAGAPKSQIVMLEASAENILQQDFCHAIKVGVKYTQQIIQGIQQLVKETGVTKRTPQKLFTPSPEIVKYTHKLAMERLYAVFTDYEHDKVSRDEAVNKIRLDTEEQLKEKFPEADPYEIIESFNVVAKEVFRSIVLNEYKRCDGRDLTSLRNVSCEVDMFKTLHGSALFQRGQTQVLCTVTFDSLESGIKSDQVITAINGIKDKNFMLHYEFPPYATNEIGKVTGLNRRELGHGALAEKALYPVIPRDFPFTIRVTSEVLESNGSSSMASACGGSLALMDSRVPISSAVAGVAIGLVTKTDPEKGEIEDYRLLTDILGIEDYNGDMDFKIAGTNKGITALQADIKLPGIPIKIVMEAIQQASVAKKEILQIMNKTISKPRASRKENGPVVETVQVPLSKRAKFVGPGGYNLKKLQAETGVTISQVDEETFSVFAPTPSAMHEARDFITEICKDDQEQQLEFGAVYTATITEIRDTGVMVKLYPNMTAVLLHNTQLDQRKIKHPTALGLEVGQEIQVKYFGRDPADGRMRLSRKVLQSPATTVVRTLNDRSSIVMGEPISQSSSNSQ |  | 3
3890 ± 545 nM | hPNPase D713Y mutant, residues 46-783 (enzyme, human, UniProt Q8TCS8 46-783, looked up) AVAVDLGNRKLEISSGKLARFADGSAVVQSGDTAVMVTAVSKTKPSPSQFMPLVVDYRQKAAAAGRIPTNYLRREIGTSDKEILTSRIIDRSIRPLFPAGYFYDTQVLCNLLAVDGVNEPDVLAINGASVALSLSDIPWNGPVGAVRIGIIDGEYVVNPTRKEMSSSTLNLVVAGAPKSQIVMLEASAENILQQDFCHAIKVGVKYTQQIIQGIQQLVKETGVTKRTPQKLFTPSPEIVKYTHKLAMERLYAVFTDYEHDKVSRDEAVNKIRLDTEEQLKEKFPEADPYEIIESFNVVAKEVFRSIVLNEYKRCDGRDLTSLRNVSCEVDMFKTLHGSALFQRGQTQVLCTVTFDSLESGIKSDQVITAINGIKDKNFMLHYEFPPYATNEIGKVTGLNRRELGHGALAEKALYPVIPRDFPFTIRVTSEVLESNGSSSMASACGGSLALMDSGVPISSAVAGVAIGLVTKTDPEKGEIEDYRLLTDILGIEDYNGDMDFKIAGTNKGITALQADIKLPGIPIKIVMEAIQQASVAKKEILQIMNKTISKPRASRKENGPVVETVQVPLSKRAKFVGPGGYNLKKLQAETGVTISQVDEETFSVFAPTPSAMHEARDFITEICKDDQEQQLEFGAVYTATITEIRDTGVMVKLYPNMTAVLLHNTQLYQRKIKHPTALGLEVGQEIQVKYFGRDPADGRMRLSRKVLQSPATTVVRTLNDRSSIVMGEPISQSSSNSQ |  | 3
